Two molecules from doi:10.1101/444570 (bioRxiv, 2018) can be followed below.

For assay [1], the target named is COMA complex (Ame1/Okp1/Ctf19/Mcm21) (S. cerevisiae (budding yeast), UniProt P38313;P53298;Q02732;Q06675). Description: cross-linking.
The target of assay [2] is Ctf19/Mcm21 heterodimer (wild type) (S. cerevisiae (budding yeast), UniProt Q02732;Q06675). In words: pull-down.
Chain of Ctf19/Mcm21 heterodimer (wild type) (Q02732 whole entry, chain 1 of 2): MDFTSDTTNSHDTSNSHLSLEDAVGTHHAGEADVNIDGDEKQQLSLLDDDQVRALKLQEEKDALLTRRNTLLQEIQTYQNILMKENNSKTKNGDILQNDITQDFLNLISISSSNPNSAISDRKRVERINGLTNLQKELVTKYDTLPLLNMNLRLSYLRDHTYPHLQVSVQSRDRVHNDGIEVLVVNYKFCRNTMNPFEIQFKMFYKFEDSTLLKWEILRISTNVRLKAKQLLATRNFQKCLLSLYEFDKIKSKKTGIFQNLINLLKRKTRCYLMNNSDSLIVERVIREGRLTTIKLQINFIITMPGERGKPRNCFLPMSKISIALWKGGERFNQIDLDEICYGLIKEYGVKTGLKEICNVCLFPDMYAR
Chain of Ctf19/Mcm21 heterodimer (wild type) (Q06675 whole entry, chain 2 of 2): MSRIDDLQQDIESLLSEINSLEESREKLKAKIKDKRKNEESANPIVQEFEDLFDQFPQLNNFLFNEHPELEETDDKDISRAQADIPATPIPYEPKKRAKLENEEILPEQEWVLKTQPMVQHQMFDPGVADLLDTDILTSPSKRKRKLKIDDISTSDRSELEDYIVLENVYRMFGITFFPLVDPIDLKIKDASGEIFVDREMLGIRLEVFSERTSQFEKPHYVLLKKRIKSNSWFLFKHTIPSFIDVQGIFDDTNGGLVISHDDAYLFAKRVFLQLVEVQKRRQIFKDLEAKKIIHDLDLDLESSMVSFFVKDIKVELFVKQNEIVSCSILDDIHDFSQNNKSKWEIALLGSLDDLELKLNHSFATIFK

Chain of COMA complex (Ame1/Okp1/Ctf19/Mcm21) (P38313 whole entry, chain 1 of 4): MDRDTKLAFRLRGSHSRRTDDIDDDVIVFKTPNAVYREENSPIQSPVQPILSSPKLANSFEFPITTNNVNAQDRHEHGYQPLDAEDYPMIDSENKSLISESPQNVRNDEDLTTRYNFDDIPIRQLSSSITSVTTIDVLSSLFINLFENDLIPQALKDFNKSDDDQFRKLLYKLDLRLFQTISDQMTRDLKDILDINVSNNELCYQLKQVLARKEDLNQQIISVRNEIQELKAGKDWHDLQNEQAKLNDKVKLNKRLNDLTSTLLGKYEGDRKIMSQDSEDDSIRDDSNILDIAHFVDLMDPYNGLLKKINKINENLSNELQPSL
Chain of COMA complex (Ame1/Okp1/Ctf19/Mcm21) (P53298 whole entry, chain 2 of 4): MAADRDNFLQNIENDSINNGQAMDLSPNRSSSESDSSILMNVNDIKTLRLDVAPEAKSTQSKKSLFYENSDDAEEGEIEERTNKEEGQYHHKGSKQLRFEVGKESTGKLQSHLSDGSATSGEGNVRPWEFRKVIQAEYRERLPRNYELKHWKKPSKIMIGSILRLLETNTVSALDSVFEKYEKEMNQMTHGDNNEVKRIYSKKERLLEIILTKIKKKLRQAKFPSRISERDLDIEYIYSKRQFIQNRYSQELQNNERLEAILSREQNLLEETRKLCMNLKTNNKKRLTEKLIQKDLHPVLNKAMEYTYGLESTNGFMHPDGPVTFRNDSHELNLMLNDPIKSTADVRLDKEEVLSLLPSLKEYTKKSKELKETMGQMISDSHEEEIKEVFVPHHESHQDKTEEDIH
Chain of COMA complex (Ame1/Okp1/Ctf19/Mcm21) (Q02732 whole entry, chain 3 of 4): as the sequence (Q02732 whole entry, chain 1 of 2) above
Chain of COMA complex (Ame1/Okp1/Ctf19/Mcm21) (Q06675 whole entry, chain 4 of 4): as the sequence (Q06675 whole entry, chain 2 of 2) above

B1: Sli15-2xStrep/Ipl1 (wild type, not phosphorylated) (complex)
chain 1: MDWAIKAARKKTQRKPGSTRSIIETLDDLNNLTTDAHSEINQRLYESSEWLRNNVYMNTLKYEDKKMEESLISPENTHNKMDVEFPKMKGEYELSNSQNDAAKDVTKTPRNGLHNDKSITPKSLRRKEVTEGMNRFSIHDTNKSPVEPLNSVKVDANESEKSSPWSPYKVEKVLRESSKTSESPINTKRFDNQTWAAKEEMENEPILQALKKAESVKVKPPPNSGIARSQRRSNMFVPLPNKDPLIIQHIPPTKSSGSIPKVRTVKESPIAFKKKSTINSPAIRAVENSDTAGSTKASSVFDRLSSIPTKSFENKISRGNVGHKYSSSSIDLTGSPMKKVSQKFKSINSTDTDMQEALRDIFSVKNKITKNNSPKGKNSRKSSIPRFDKTSLKLTTHKKLAIIAEQKKKSKHSSDVHKTGSRPHSISPTKISVDSSSPSKEVKNYYQSPVRGYLRPTKASISPNKNKNLTTSQTPHRLKIKEKTLRKLSPNIADISKPESRKSKNYRLTNLQLLPPAEAERDDLKKKFDKRLSGIMRSQQEHHRRKQEKQKRMSHLEQDLKKQTSFSNDYKDIRLKESLAPFDNHVRDTINKNTAFSTDNILATINTVDHREIIGNVTPKIASVNDSLPEINTDSEDEASVTLAAWAKSPYLQEQLIRQQDINPQTIFGPIPPLHTDEIFPNPRLNRLKPRQIVPKRS
chain 2: MQRNSLVNIKLNANSPSKKTTTRPNTSRINKPWRISHSPQQRNPNSKIPSPVREKLNRLPVNNKKFLDMESSKIPSPIRKATSSKMIHENKKLPKFKSLSLDDFELGKKLGKGKFGKVYCVRHRSTGYICALKVMEKEEIIKYNLQKQFRREVEIQTSLNHPNLTKSYGYFHDEKRVYLLMEYLVNGEMYKLLRLHGPFNDILASDYIYQIANALDYMHKKNIIHRDIKPENILIGFNNVIKLTDFGWSIINPPENRRKTVCGTIDYLSPEMVESREYDHTIDAWALGVLAFELLTGAPPFEEEMKDTTYKRIAALDIKMPSNISQDAQDLILKLLKYDPKDRMRLGDVKMHPWILRNKPFWENKRL
For the molecule B1, the binding result in assay [1] was “binds”.

B2: Sli15∆N2-370-2xStrep/Ipl1 (complex)
chain 1: MNNSPKGKNSRKSSIPRFDKTSLKLTTHKKLAIIAEQKKKSKHSSDVHKTGSRPHSISPTKISVDSSSPSKEVKNYYQSPVRGYLRPTKASISPNKNKNLTTSQTPHRLKIKEKTLRKLSPNIADISKPESRKSKNYRLTNLQLLPPAEAERDDLKKKFDKRLSGIMRSQQEHHRRKQEKQKRMSHLEQDLKKQTSFSNDYKDIRLKESLAPFDNHVRDTINKNTAFSTDNILATINTVDHREIIGNVTPKIASVNDSLPEINTDSEDEASVTLAAWAKSPYLQEQLIRQQDINPQTIFGPIPPLHTDEIFPNPRLNRLKPRQIVPKRS
chain 2: B1 chain 2
For the molecule B2, the binding result in assay [2] is given as “binds”.
